This data set deals with T1, His-yTop3 (Saccharomyces cerevisiae, UniProt P13099 1-656).
T1 sequence: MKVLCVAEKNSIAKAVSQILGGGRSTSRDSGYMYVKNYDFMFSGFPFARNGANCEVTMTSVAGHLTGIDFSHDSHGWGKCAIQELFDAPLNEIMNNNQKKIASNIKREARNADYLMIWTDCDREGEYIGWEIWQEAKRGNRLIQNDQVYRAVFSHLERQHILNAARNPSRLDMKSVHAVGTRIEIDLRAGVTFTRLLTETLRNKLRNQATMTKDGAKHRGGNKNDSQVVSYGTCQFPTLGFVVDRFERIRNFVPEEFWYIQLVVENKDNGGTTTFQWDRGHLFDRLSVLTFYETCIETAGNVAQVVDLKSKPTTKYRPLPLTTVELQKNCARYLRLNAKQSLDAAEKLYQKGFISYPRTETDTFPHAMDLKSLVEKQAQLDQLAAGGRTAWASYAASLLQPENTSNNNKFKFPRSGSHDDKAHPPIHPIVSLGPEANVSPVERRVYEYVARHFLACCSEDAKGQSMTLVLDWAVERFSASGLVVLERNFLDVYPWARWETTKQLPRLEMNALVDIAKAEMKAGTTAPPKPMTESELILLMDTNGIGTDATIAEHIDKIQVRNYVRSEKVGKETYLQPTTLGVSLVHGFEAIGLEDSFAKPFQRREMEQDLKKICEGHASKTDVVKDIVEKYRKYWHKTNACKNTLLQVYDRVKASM
As to the kind of experiment: EMSA; gel-shift band at 50 nM protein in the RNA topoisomerase reaction; abolished by phenol-chloroform; RNA topoisomerase reaction mixture; buffer, salt, pH and temperature not given in the material. For orientation: In EMSA bound probe runs differently from free probe, usually more slowly.

B1: 128-nt circular RNA topoisomerase substrate (structured_RNA)
RNA: GGGAGAUUUUUUUUUUUUUUUUUUUUGUCAGACGGAUCUUUUUUUUUUUUUUUUUUUUUCUCCCGACUGGUUUUUUUUUUUUUUUUUUUUGAUCCGUCUGACUUUUUUUUUUUUUUUUUUUUCCAGUC
modifications: circularised with T4 RNA ligase (5' end joined to 3' end)
In the case of B1, the binding result is “binds”.

The record behind these values is PMC4994864.
